Each block holds one binder with its values, some of them ahead of it. Non-standard residues stand in square brackets, D forms with d. No end group written: not given here. pY = N[C@@H](Cc1ccc(OP(=O)(O)O)cc1)C(=O)O
Legend:
[1] = target: T1, PTB domain of Shc (human); experiment: peptide or protein array
T1 sequence (P29353 whole entry, looked up): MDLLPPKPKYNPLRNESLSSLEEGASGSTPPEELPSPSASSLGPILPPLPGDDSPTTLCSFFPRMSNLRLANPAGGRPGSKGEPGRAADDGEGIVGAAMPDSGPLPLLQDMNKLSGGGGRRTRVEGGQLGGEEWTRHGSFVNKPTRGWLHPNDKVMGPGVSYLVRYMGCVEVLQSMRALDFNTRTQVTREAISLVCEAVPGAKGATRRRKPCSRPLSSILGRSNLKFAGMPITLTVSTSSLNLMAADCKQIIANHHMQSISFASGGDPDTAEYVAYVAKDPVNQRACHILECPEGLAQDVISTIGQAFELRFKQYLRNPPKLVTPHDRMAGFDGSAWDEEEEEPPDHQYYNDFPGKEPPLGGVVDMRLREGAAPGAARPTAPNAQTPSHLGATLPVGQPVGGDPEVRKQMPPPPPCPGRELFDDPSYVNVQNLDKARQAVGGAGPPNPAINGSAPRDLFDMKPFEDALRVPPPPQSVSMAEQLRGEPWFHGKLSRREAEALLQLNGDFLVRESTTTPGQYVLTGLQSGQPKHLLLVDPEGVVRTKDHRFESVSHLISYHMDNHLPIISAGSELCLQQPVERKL

[2] = target: T2, core domain of Signal Transducer and Activator of Transcription 1 (STAT1) (human); experiment: peptide or protein array
T2 chain: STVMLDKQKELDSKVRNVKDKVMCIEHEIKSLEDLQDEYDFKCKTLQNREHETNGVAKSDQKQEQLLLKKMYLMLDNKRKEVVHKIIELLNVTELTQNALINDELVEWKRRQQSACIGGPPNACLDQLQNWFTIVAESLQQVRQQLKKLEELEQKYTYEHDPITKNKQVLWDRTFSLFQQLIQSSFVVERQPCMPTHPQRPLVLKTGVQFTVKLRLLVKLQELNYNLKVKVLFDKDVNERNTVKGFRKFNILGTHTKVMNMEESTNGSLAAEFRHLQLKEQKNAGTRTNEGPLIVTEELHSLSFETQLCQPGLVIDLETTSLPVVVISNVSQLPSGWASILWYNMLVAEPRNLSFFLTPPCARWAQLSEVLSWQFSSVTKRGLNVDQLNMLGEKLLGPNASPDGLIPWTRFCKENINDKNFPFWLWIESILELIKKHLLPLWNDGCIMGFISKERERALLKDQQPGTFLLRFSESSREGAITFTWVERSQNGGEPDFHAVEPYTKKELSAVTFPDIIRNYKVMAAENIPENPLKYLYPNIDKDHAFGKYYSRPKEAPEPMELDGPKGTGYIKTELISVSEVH

Kd [1]: < 1 µM
Binder: {5(6)‑TAMRA}-DLQALDNPE[pY]HNASNGPD [ErbB4-1188 phosphopeptide]

Kd [1]: < 1 µM
Binder: {5(6)‑TAMRA}-AKKAFDNPD[pY]WNHSLPPD [ErbB4-1242 phosphopeptide]

Continued, binder first:

Binder: {5(6)‑TAMRA}-QAFNIPPPI[pY]TSRARIDD [ErbB4-1035 phosphopeptide]
Kd [2]: 1.55 µM

Binder: {5(6)‑TAMRA}-VQEDSSTQR[pY]SADPTVFD [ErbB4-1128 phosphopeptide]
Kd [2]: 2.06 µM
